Measured values taken from IntAct's records for PubMed 21399639.

Biological target: T1, ikkb_human IKBKB (UniProt O14920)
T1 sequence: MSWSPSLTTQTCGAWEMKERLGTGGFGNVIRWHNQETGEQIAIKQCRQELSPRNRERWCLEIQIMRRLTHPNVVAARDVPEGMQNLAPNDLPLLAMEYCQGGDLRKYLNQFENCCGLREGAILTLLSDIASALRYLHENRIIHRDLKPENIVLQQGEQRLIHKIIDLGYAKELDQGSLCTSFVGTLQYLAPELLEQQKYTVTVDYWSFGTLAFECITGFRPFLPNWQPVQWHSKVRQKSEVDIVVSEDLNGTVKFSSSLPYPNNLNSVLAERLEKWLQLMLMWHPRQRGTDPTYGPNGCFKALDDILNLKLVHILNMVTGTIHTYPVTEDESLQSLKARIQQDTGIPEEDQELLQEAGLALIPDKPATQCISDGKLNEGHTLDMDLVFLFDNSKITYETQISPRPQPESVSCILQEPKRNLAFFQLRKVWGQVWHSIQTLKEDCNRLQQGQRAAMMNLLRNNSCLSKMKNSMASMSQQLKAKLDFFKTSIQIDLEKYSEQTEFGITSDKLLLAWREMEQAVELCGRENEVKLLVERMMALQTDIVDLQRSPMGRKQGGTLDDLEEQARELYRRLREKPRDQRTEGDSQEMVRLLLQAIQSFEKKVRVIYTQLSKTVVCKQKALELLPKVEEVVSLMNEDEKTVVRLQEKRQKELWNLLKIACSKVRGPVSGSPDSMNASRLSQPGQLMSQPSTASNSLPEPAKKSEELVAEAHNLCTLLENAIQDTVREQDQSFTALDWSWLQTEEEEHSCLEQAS

effect of a mutation on the interaction: disrupting interaction
Substance: Small ribosomal subunit protein uS3 (Homo sapiens) (from UniProt P23396) S209A
